# Laboratory results: PMC10724065, “Evolution of a plant growth-regulatory protein interaction specificity” (Nature Plants, 2023)
# T1: His-tagged GAI (Arabidopsis thaliana, UniProt Q9LQT8 1-533)
# T1 construct: GAI of A. thaliana; also called His-GAI; His-tagged AtGAI; source: E. coli BL21, purified (Ni-NTA agarose)
# T1 sequence (looked up): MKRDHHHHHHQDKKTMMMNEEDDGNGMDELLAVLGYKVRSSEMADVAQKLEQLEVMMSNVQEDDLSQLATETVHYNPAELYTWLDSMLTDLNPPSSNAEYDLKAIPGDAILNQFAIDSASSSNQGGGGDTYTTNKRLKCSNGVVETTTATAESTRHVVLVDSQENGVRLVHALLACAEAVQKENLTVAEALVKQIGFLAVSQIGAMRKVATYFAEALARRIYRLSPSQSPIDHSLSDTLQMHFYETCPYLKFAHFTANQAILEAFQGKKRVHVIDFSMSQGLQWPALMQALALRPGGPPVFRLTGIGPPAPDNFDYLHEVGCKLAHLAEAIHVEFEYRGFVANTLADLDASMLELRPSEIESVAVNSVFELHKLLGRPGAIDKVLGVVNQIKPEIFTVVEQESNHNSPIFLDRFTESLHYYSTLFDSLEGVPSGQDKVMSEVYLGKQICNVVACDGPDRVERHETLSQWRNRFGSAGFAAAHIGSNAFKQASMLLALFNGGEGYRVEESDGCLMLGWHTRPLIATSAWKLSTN
# Columns and labels:
# [1] = biological target: Marchantia polymorpha MpDELLA (yeast prey fusion); experiment: yeast 2-hybrid; details: parent: est. 180; read off a plot
# [2] = biological target: A. thaliana GAI (yeast prey fusion) (UniProt Q9LQT8); experiment: yeast 2-hybrid; details: parent: est. 37; read off a plot
# His-tagged GAI [3] = biological target: T1, His-tagged GAI; experiment: pull-down; 5 μg His-GAI/gai held on Ni-NTA agarose, 5 μg MBP-SLY1/sly1 added, 1 h at 4 °C, five washes, immunoblot with anti-His and anti-MBP; details: both partners purified
# His-tagged GAI [4] = biological target: T1, His-tagged GAI; experiment: pull-down; 5 μg His-GAI held on Ni-NTA agarose, 5 μg MBP-SLY1/sly1 added with an equal amount of GST-GID1C and 0.1 mM GA3, 1 h at 4 °C, immunoblot with anti-His, anti-MBP and anti-GST; details: both partners purified
Molecule,response (β-galactosidase units) [1],binding result (His-tagged GAI [3]),other results
Marchantia polymorpha MpSLY1 (yeast bait fusion) Y108F,–,–,response (β-galactosidase units) [2]: 17
"MBP-tagged AtSLY1 (natural protein, Arabidopsis thaliana, UniProt Q9STX3 1-151, looked up, AtSLY1 of A. thaliana; also called MBP-SLY1; source: E. coli BL21, purified (amylose resin)) MKRSTTDSDLAGDAHNETNKKMKSTEEEEIGFSNLDENLVYEVLKHVDAKTLAMSSCVSKIWHKTAQDERLWELICTRHWTNIGCGQNQLRSVVLALGGFRRLHSLYLWPLSKPNPRARFGKDELKLTLSLLSIRYYEKMSFTKRPLPESK",–,binds,–
"MBP-tagged Atsly1^H104Y (natural protein, Arabidopsis thaliana, UniProt Q9STX3 1-151, looked up, AtSLY1 of A. thaliana with H104Y; cloned into pMAL-c2X; source: E. coli BL21, purified (amylose resin)) MKRSTTDSDLAGDAHNETNKKMKSTEEEEIGFSNLDENLVYEVLKHVDAKTLAMSSCVSKIWHKTAQDERLWELICTRHWTNIGCGQNQLRSVVLALGGFRRLYSLYLWPLSKPNPRARFGKDELKLTLSLLSIRYYEKMSFTKRPLPESK",–,binds,–
"GST-GID1C (receptor, Arabidopsis thaliana, UniProt Q940G6 1-344, looked up, GID1C, gibberellin receptor of A. thaliana; Used together with 0.1 mM GA3; also called GST-AtGID1C; source: E. coli BL21, purified (glutathione beads)) MAGSEEVNLIESKTVVPLNTWVLISNFKLAYNLLRRPDGTFNRHLAEFLDRKVPANANPVNGVFSFDVIIDRQTNLLSRVYRPADAGTSPSITDLQNPVDGEIVPVIVFFHGGSFAHSSANSAIYDTLCRRLVGLCGAVVVSVNYRRAPENRYPCAYDDGWAVLKWVNSSSWLRSKKDSKVRIFLAGDSSGGNIVHNVAVRAVESRIDVLGNILLNPMFGGTERTESEKRLDGKYFVTVRDRDWYWRAFLPEGEDREHPACSPFGPRSKSLEGLSFPKSLVVVAGLDLIQDWQLKYAEGLKKAGQEVKLLYLEQATIGFYLLPNNNHFHTVMDEIAAFVNAECQ",–,–,binding result (His-tagged GAI [4]): binds

# Second part, led by results:
response (β-galactosidase units) [1],binding result (His-tagged GAI [3]),Molecule,other results
130,–,Marchantia polymorpha MpSLY1 (yeast bait fusion) H147K,–
50,–,Marchantia polymorpha MpSLY1 (yeast bait fusion) R118P,–
100,–,Marchantia polymorpha MpSLY1 (yeast bait fusion) S149T,–
–,binds,"MBP-sly1^gar2-1 (E138K) (natural protein, Arabidopsis thaliana, UniProt Q9STX3 1-151, looked up, AtSLY1 of A. thaliana with E138K; cloned into pMAL-c2X; also called MBP-tagged Atsly1^gar2-1; source: E. coli BL21, purified (amylose resin)) MKRSTTDSDLAGDAHNETNKKMKSTEEEEIGFSNLDENLVYEVLKHVDAKTLAMSSCVSKIWHKTAQDERLWELICTRHWTNIGCGQNQLRSVVLALGGFRRLHSLYLWPLSKPNPRARFGKDELKLTLSLLSIRYYKKMSFTKRPLPESK",–
